# B1: dT25 (ssDNA)
# DNA: TTTTTTTTTTTTTTTTTTTTTTTTT
# Target: huRPA32 (human RPA32) (human, UniProt P15927 1-270)
# Assay: EMSA; [Protein]50 by linear interpolation; DNA 30 fmol/uL; no extract; 40 mM Tris-HCl pH 7.5, 50 mM NaCl, 37 C, 60 min; 8% native PAGE in TBE, 100 V 1 h
# Conditions: protein: recombinant; single-stranded
# huRPA32 (human RPA32), sequence (P15927 whole entry): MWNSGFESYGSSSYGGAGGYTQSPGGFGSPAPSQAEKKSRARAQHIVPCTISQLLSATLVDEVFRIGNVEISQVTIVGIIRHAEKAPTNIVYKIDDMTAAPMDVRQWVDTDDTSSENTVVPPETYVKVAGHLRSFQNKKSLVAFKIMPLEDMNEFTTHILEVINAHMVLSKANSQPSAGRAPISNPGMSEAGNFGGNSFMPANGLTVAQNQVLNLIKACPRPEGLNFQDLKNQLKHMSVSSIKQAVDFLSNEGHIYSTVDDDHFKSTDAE
binder,measurement,value
B1,apparent K (half saturation),5.7 ± 0.6 µM

# Source: article PMC12115182, “Inhibition of RPA32 and Cytotoxic Effects of the Carnivorous Plant Sarracenia purpurea Root Extract in Non-Small-Cell Lung Cancer Cells”
